Starred links: 1 amine or outer side, 2 acyl side, 3 side chain; linkers in the order of their positions; H or OH if unused. Positions of bridges follow the written chain, without caps; N, C: chain ends. Non-standard residues stand in square brackets, D forms with d. Primed or numbered codes have the meaning given here. No end group written: not given here. ξ: configuration not given here. *: point of attachment. PyrS2″ = (S)-3-amino-1-((pent-4-en-1-yloxy)carbonyl)pyrrolidine-3-carboxylic acid (stapling residue), C=CCCCOC(=O)N1CC[C@@](N[*:1])(C(=O)[*:2])C1; B5(4) = 2,2-bis(4-pentenyl)glycine = 2-amino-2-(pent-4-en-1-yl)hept-6-enoic acid (stitching residue), C=CCCCC(CCCC=C)(N[*:1])C(=O)[*:2]; B5(5) = 2,2-bis(4-pentenyl)glycine, 2-amino-2-(pent-4-en-1-yl)hept-6-enoic acid (stitching residue), C=CCCCC(CCCC=C)(N[*:1])C(=O)[*:2]; TfeGA = (S)-2-amino-3-((carboxymethyl)(2,2,2-trifluoroethyl)amino)propanoic acid, O=C([C@H](CN(CC(=O)[*:3])CC(F)(F)F)N[*:1])[*:2]; PyrS2 = (S)-3-amino-1-((pent-4-en-1-yloxy)carbonyl)pyrrolidine-3-carboxylic acid, C=CCCCOC(=O)N1CC[C@@](N[*:1])(C(=O)[*:2])C1; (NMe2)GlnR(3) = [NMe2]GlnR, N5,N5-dimethyl-L-glutamine, CN(C)C(=O)CC[C@H](N[*:1])C(=O)[*:2]; B5(3) = 2,2-bis(4-pentenyl)glycine (stitching residue), C=CCCCC(CCCC=C)(N[*:1])C(=O)[*:2]; B5 = 2-amino-2-(pent-4-en-1-yl)hept-6-enoic acid, C=CCCCC(CCCC=C)(N[*:1])C(=O)[*:2]; Phe(3-CF3) = N[C@@H](Cc1cccc(C(F)(F)F)c1)C(=O)O; Phe(3-COOH) = N[C@@H](Cc1cccc(C(=O)O)c1)C(=O)O; 2F3MeF = Cc1cccc(C[C@H](N[*:1])C(=O)[*:2])c1F; Phe(2-CF3) = N[C@@H](Cc1ccccc1C(F)(F)F)C(=O)O; Phe(2-Cl) = N[C@@H](Cc1ccccc1Cl)C(=O)O; Bta = N[C@@H](Cc1csc2ccccc12)C(=O)O; Lys(iPr) = CC(C)NCCCC[C@H](N)C(=O)O; hTyr = N[C@@H](CCc1ccc(O)cc1)C(=O)O; αAllylPro = C=CC[C@@]1(C(=O)O)CCCN1; tBuAla = CC(C)(C)C[C@H](N)C(=O)O; 3Thi = N[C@@H](Cc1ccsc1)C(=O)O; Cha = N[C@@H](CC1CCCCC1)C(=O)O; Thr(ol) = C[C@@H](O)[C@H](N)CO; ξβ3hD = NC(CC(=O)O)CC(=O)O; hSer = N[C@@H](CCO)C(=O)O; Nle = CCCC[C@H](N)C(=O)O; Aib = CC(C)(N)C(=O)O; iPr = CC(C)*
These binders were tested against full-length beta-Catenin (Uniprot ID P35222) (Homo sapiens (Human)) (UniProt P35222) (assay: fluorescence polarization competition vs 5FAM-TCF4(10-53) on full-length beta-catenin).
Target sequence in this assay (P35222 2-781 limits assumed): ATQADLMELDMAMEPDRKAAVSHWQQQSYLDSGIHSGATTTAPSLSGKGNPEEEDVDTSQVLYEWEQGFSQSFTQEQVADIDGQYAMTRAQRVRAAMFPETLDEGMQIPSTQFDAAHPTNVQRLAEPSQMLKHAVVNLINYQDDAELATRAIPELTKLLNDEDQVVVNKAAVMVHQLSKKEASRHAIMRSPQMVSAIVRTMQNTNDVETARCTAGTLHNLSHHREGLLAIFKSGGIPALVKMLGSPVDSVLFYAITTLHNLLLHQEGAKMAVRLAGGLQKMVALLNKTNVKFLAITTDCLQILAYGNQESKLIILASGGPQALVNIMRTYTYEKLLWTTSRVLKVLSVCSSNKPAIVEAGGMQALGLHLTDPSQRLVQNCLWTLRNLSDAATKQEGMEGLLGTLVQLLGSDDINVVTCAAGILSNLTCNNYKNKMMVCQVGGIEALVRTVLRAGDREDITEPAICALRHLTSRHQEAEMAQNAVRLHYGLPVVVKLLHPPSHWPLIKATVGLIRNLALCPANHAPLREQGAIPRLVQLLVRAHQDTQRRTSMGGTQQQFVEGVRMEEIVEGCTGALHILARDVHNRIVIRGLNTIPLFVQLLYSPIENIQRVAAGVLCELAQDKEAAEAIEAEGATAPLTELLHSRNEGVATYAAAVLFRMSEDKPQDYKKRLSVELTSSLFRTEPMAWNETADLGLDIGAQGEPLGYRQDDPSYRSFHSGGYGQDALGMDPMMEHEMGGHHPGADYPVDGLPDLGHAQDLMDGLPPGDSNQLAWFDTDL

IC50 [nM]	Binder
70	Ac-[αAllylPro]D[Cha][B5(4)]DDLLFS[PyrS2″][Phe(2-Cl)][Bta]Q-NH2 (staple 1-4, 4-11) [I-1149]

The binders below were run against full-length beta-Catenin (Uniprot ID P35222) (Homo sapiens (Human)) (UniProt P35222) (assay: fluorescence polarization competition, 5FAM-TCF4 10-53 probe on full-length beta-catenin).
Target sequence in this assay (P35222 2-781 limits assumed): as above

EC50 [nM]	Binder
64	Ac-[αAllylPro]D[Cha][B5(5)]DDAAF[Cha][PyrS2″][Phe(2-Cl)][Bta]S-NH2 (staple 1-4, 4-11) [I-1113]
70	Ac-[αAllylPro]D[Cha][B5(4)]DDLLFS[PyrS2″][Phe(2-Cl)][Bta]Q-NH2 (staple 1-4, 4-11) [I-1149]

Each binder was assayed against full-length beta-Catenin (Uniprot ID P35222) (Homo sapiens (Human)) (UniProt P35222) (assay: fluorescence polarization competition; full-length beta-catenin + 5FAM-TCF4(10-53) probe).
Target sequence in this assay (P35222 whole entry): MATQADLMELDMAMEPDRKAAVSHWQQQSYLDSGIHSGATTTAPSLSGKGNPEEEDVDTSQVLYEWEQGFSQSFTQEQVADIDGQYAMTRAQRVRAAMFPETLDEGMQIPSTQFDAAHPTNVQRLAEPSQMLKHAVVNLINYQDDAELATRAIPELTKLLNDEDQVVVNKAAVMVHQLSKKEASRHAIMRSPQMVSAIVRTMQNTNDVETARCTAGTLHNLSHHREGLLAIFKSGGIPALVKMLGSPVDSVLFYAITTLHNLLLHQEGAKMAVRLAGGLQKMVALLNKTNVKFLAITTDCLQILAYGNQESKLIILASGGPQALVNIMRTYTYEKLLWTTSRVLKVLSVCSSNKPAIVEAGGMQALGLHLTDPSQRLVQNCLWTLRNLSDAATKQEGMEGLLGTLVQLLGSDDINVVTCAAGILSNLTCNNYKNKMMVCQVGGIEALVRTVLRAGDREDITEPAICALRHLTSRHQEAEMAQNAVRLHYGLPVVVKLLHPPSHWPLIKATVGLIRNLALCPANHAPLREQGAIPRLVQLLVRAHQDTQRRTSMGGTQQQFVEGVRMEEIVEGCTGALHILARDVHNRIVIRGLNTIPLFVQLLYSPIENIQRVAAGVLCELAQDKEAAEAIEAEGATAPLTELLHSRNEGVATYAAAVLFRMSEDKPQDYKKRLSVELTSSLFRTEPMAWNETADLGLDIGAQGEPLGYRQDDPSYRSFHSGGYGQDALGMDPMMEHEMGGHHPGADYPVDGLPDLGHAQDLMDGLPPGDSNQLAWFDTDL

EC50 [nM]	Binder
198	Ac-[αAllylPro]D[tBuAla][B5(3)]DTAA[Phe(3-CF3)]T[PyrS2″]F[Bta]S-NH2 (staple 1-4; staple 4-11 (inferred); not fully specified; printed as Ac-PL3-Asp-Npg-B5-Asp-Thr-Ala-Ala-3F3MeF-Thr-PyrS2-Phe-BztA-Ser-NH2) [I-1268]

The binders below were run against full-length beta-Catenin (Uniprot ID P35222) (Homo sapiens (Human)) (UniProt P35222) (assay: fluorescence polarization competition; full-length beta-catenin, competitor 5FAM-TCF4(10-53) probe).
Target sequence in this assay (P35222 2-781 limits assumed): as the sequence (P35222 2-781 limits assumed) above

EC50 [nM]	IC50 [nM]	Binder
75		[αAllylPro]D[tBuAla][B5]DDAAFF[PyrS2][Cha][Bta]Q-NH2 (staple 1-4, 4-11) [I-1331]
	24	Ac-[αAllylPro][ξβ3hD][tBuAla][B5(4)]D[TfeGA]AAFN[PyrS2″][3Thi][Bta]Q-NH2 (staple 1-4, 4-11) [I-1161]
12		Ac-[αAllylPro]D[tBuAla][B5(4)]DD[Lys(iPr)]AFL[PyrS2″][Phe(2-Cl)][Bta][Thr(ol)] (staple 1-4, 4-11) [I-1313]

Each binder was assayed against full-length beta-Catenin (Uniprot ID P35222) (Homo sapiens (Human)) (UniProt P35222) (assay: fluorescence polarization competition; full-length beta-catenin; competitor 5FAM-TCF4(10-53) probe).
Target sequence in this assay (P35222 whole entry): as the sequence (P35222 whole entry) above

EC50 [nM]	Binder
24	Ac-[αAllylPro][ξβ3hD][tBuAla][B5(4)]D[TfeGA]AAFN[PyrS2″][3Thi][Bta]Q-NH2 (staple 1-4, 4-11) [I-1161]

Each binder was assayed against full-length beta-Catenin (Uniprot ID P35222) (Homo sapiens (Human)) (UniProt P35222) (assay: fluorescence polarization competition; 10 nM full-length beta-catenin, 10 nM 5FAM-TCF4(10-53) probe).
Target sequence in this assay (P35222 whole entry): as above

IC50 [nM]	Binder
37	Ac-[αAllylPro]D[tBuAla][B5(4)]D[Phe(3-COOH)]AAFF[PyrS2″][Phe(2-CF3)][Bta][MorphGln]-NH2 (staple 1-4, 4-11) [I-2543]
12	Ac-[αAllylPro]D[tBuAla][B5(4)]D[Phe(3-COOH)][Aib]AF[Nle][PyrS2″][3Thi][Bta][(NHEt)GlnR]-NH2 (staple 1-4, 4-11) [I-2552]
8	Ac-[αAllylPro]D[tBuAla][B5(4)]D[Phe(3-COOH)][Aib]AF[Nle][PyrS2″][3Thi][Bta][(NMe2)GlnR(3)]-NH2 (staple 1-4, 4-11) [I-2551]

What follows are binders tested against full-length beta-Catenin (Uniprot ID P35222) (Homo sapiens (Human)) (UniProt P35222) (assay: fluorescence polarization competition; competitor 5FAM-TCF4(10-53) probe on full-length beta-catenin).
Target sequence in this assay (P35222 whole entry): as above

IC50 [nM]	Binder
36	Ac-[αAllylPro]D[tBuAla][B5(4)]DWAA[Phe(3-COOH)]N[PyrS2″][3Thi][Bta]Q-NH2 (staple 1-4, 4-11) [I-2127]
29	Ac-[αAllylPro]D[tBuAla][B5(4)]DHAA[Phe(3-COOH)]N[PyrS2″][3Thi][Bta]Q-NH2 (staple 1-4, 4-11; also: later eluting HPLC isomer composition) [I-2119]
68	Ac-[αAllylPro]D[tBuAla][B5(4)]DYAA[Phe(3-COOH)]L[PyrS2″][3Thi][Bta]Q-NH2 (staple 1-4, 4-11) [I-2126]
12	Ac-[αAllylPro]D[tBuAla][B5(4)]DHAA[Phe(3-COOH)]L[PyrS2″][3Thi][Bta]Q-NH2 (staple 1-4, 4-11; also: earlier eluting HPLC isomer composition) [I-2122]
164	Ac-[αAllylPro]N[Cha][B5(3)]DQ[Lys(iPr)]AFN[PyrS2″]F[Bta]Q-NH2 (staple 1-4, 4-11) [I-2113]
88	Ac-[αAllylPro]N[Cha][B5(4)]DQ[Lys(iPr)]AFN[PyrS2″]F[Bta]K-NH2 (staple 1-4, 4-11) [I-2110]
136	Ac-[αAllylPro]N[Cha][B5(4)]DQ[Lys(iPr)]AFN[PyrS2″]F[Bta]H-NH2 (staple 1-4, 4-11) [I-2109]

The remaining lines, values behind:

Binder	IC50 [nM]
Ac-[αAllylPro]D[tBuAla][B5(3)]D[Phe(3-COOH)]A[dA]FL[PyrS2″][2F3MeF][Bta][dA]-NH2 (staple 1-4, 4-11) [I-2101]	424
Ac-[αAllylPro]N[Cha][B5(4)]DQ[Lys(iPr)]AFN[PyrS2″]F[Bta]N-NH2 (staple 1-4, 4-11) [I-2111]	180
Ac-[αAllylPro]D[tBuAla][B5(4)]DWAA[Phe(3-COOH)][hSer][PyrS2″][3Thi][Bta]Q-NH2 (staple 1-4, 4-11) [I-2128]	29
Ac-[αAllylPro]D[tBuAla][B5(4)]D[hTyr]AA[Phe(3-COOH)]N[PyrS2″][3Thi][Bta]Q-NH2 (staple 1-4, 4-11; also: later eluting HPLC isomer composition) [I-2115]	29
Ac-[αAllylPro]D[tBuAla][B5(4)]DYAA[Phe(3-COOH)][hSer][PyrS2″][3Thi][Bta]Q-NH2 (staple 1-4, 4-11; also: earlier eluting HPLC isomer composition) [I-2124]	29
[αAllylPro]D[tBuAla][B5]DDAAFF[PyrS2][Cha][Bta]Q-NH2 (staple 1-4, 4-11) [I-1331]	75
Ac-[αAllylPro]D[tBuAla][B5(4)]DHAA[Phe(3-COOH)]L[PyrS2″][3Thi][Bta]Q-NH2 (staple 1-4, 4-11; also: later eluting HPLC isomer composition) [I-2123]	12
Ac-[αAllylPro]D[tBuAla][B5(4)]D[hTyr]AA[Phe(3-COOH)][hSer][PyrS2″][3Thi][Bta]Q-NH2 (staple 1-4, 4-11; also: later eluting HPLC isomer composition) [I-2117]	19
Ac-[αAllylPro]D[tBuAla][B5(4)]DYAA[Phe(3-COOH)][hSer][PyrS2″][3Thi][Bta]Q-NH2 (staple 1-4, 4-11; also: later eluting HPLC isomer composition) [I-2125]	26
Ac-[αAllylPro]D[tBuAla][B5(4)]DHAA[Phe(3-COOH)]N[PyrS2″][3Thi][Bta]Q-NH2 (staple 1-4, 4-11; also: earlier eluting HPLC isomer composition) [I-2118]	21
Ac-[αAllylPro]D[tBuAla][B5(4)]DWAA[Phe(3-COOH)]L[PyrS2″][3Thi][Bta]Q-NH2 (staple 1-4, 4-11) [I-2129]	105
Ac-[αAllylPro]N[Cha][B5(4)]DQ[Lys(iPr)]AF[Lys(iPr)][PyrS2″]F[Bta][hSer]-NH2 (staple 1-4, 4-11) [I-2102]	273
Ac-[αAllylPro]D[tBuAla][B5(4)]D[Phe(3-COOH)]A[dA]FL[PyrS2″][2F3MeF][Bta]A-NH2 (staple 1-4, 4-11; also: earlier-eluting HPLC isomer composition) [I-2098]	260
Ac-[αAllylPro]D[tBuAla][B5(4)]D[hTyr]AA[Phe(3-COOH)]N[PyrS2″][3Thi][Bta]Q-NH2 (staple 1-4, 4-11; also: earlier eluting HPLC isomer composition) [I-2114]	32
Ac-[αAllylPro]D[tBuAla][B5(4)]D[hTyr]AA[Phe(3-COOH)][hSer][PyrS2″][3Thi][Bta]Q-NH2 (staple 1-4, 4-11; also: earlier eluting HPLC isomer composition) [I-2116]	19
Ac-[αAllylPro]D[tBuAla][B5(5)]D[Phe(3-COOH)]A[dA]FL[PyrS2″][2F3MeF][Bta]A-NH2 (staple 1-4, 4-11; also: later eluting HPLC isomer) [I-2099]	325
Ac-[αAllylPro]D[tBuAla][B5(4)]DD[Lys(iPr)]AFL[PyrS2″][Phe(2-Cl)][Bta][Thr(ol)] (staple 1-4, 4-11) [I-1313]	12
Ac-[αAllylPro]N[Cha][B5(3)]DQ[Lys(iPr)]AFN[PyrS2″]F[Bta]T-NH2 (staple 1-4, 4-11) [I-2112]	501

What follows are binders tested against full-length beta-Catenin (Uniprot ID P35222) (Homo sapiens (Human)) (UniProt P35222) (assay: fluorescence polarization competition; displacement of 5FAM-TCF4(10-53) from full-length beta-catenin).
Target sequence in this assay (P35222 whole entry): as above

IC50 [nM]	Binder
64	Ac-[αAllylPro]D[Cha][B5(5)]DDAAF[Cha][PyrS2″][Phe(2-Cl)][Bta]S-NH2 (staple 1-4, 4-11) [I-1113]

Source: US20240116985A1, “STAPLED PEPTIDES AND METHODS THEREOF” (priority 2020, published 2024)
